According to patent publication US20200347144A1 (SHANGHAI HYAMAB BIOTECH, published 2020):

How the values were obtained:
[1] = target: T1, human 4-1BB, full length, on transfected cells (human, UniProt Q07011 24-255); assay: FACS, CHOK1-h4-1BB cells; Ab 10 ug/ml
T1 construct: whole, on cells; also called CHOK1-h4-1BB
Source text: (§1) The pIRES plasmid carrying the full-length gene of monkey-derived […] (the preparation method is the same as the preparation method of the pCpC vector carrying the human-derived IgG Fc fragment (hFc) in “Preparation of immunogen A” of the step (1) in Example 1, in which the database accession number of the amino acid sequence of the extracellular region of monkey 4-1BB protein (Phe19-Thr239) is G7PSE7) was transfected into CHOK1 cell line to obtain CHOK1 stable transfected cell line containing monkey 4-1BB (herein referred to as CHOK1-c4-1BB stable cell line). The CHOK1-h4-1BB stable cell line and the CHOK1-c4-1BB stable cell line were expanded and cultivated to 90% confluence in T-75 cell culture flasks. The medium was exhausted, and washed twice with HBSS buffer (Hanks Balanced Salt Solution, purchased from Invitrogen), and then the cells were treated and collected with enzyme-free cell dissociation solution (Versene solution, purchased from Life Technology). The cells were washed twice with HBSS buffer, and after cell counting, the cells were diluted with HBSS buffer to 2×10⁶ cells per ml, and 1% goat serum blocking solution was added, the percentage being the mass percentage. It was incubated on ice for 30 minutes, and then washed twice with HBSS buffer by centrifugation. The collected cells were suspended in FACS buffer (HBSS containing 1% BSA, the percentage was the mass percentage) to 2×10⁶ cells/mL, and 100 μl per well was added to a 96-well FACS reaction plate. The purified 4-1BB antibody test sample obtained in Example 2 was added, 100 microliters per well and incubated on ice for 2 hours. […] It was washed three times with FACS buffer by centrifugation, and 100 μl of fixative [4% (v/v) paraformaldehyde] per well was added to suspend cells, and washed twice with FACS buffer after 10 minutes by centrifugation. The cells were suspended with 100 microliters of FACS buffer, and the results were detected and analyzed with FACS (FACS Calibur, purchased from BD).

[2] = target: T2, monkey 4-1BB on CHOK1 cells (monkey); assay: FACS, CHOK1-c4-1BB cells; Ab 0.00013 ug/ml
T2 construct: whole, on cells; also called CHOK1-c4-1BB
Source text: as §1

[3] = target: T3, hFc-tagged human 4-1BB extracellular domain protein (4-1BB-hFc) (human, UniProt Q07011 24-186, limits assumed); assay: ELISA, coated human 4-1BB-hFc; Ab 0.4 ug/ml
T3 construct: also called immunogen A; 4-1BB^ECD-hFc; not shown: human IgG Fc fragment (hFc) of the pCpC vector
Experimental: (§2) The purified immunogen A (4-1BB-hFc), monkey 4-1BB-his, and mouse 4-1BB-his obtained in Example 1 [for the preparation method, see step 1 of Example 1, preparation of immunogen A], of which the extracellular domain of monkey-derived 4-1BB protein (purchased from ACRO biosystems), the extracellular domain of mouse 4-1BB protein (purchased from sino biological) or other immune detection point proteins respectively were diluted with PBS to a final concentration of 1.0 μg/mL, then added with […] per well to 96-well ELISA plate. It was sealed with plastic film and incubated at 4° C. overnight. The next day, the plate was washed twice with the plate-washing solution [PBS containing 0.01% (v/v) Tween20] and blocking solution [PBS containing 0.01% (v/v) Tween 20 and 1% (v/v) BSA] was added and blocked at room temperature for 2 hours. The blocking solution was discarded and 100 μl of the purified 4-1BB antibody obtained in Example 2 was added per well. After incubated at 37° C. for 2 hours, the plate was washed 3 times with a plate-washing solution [PBS containing 0.01% (v/v) Tween20]. A secondary antibody (purchased from Sigma) labeled with HRP (horseradish peroxidase) was added, and after incubated at 37° C. for 2 hours, the plate was washed 3 times with a plate-washing solution [PBS containing 0.01% (v/v) Tween20]. 100 μl of TMB substrate was added per well. After incubated for 30 minutes at room temperature, 100 μl of stop buffer (1.0N HCl) was added per well. The A450 nm values were read using an ELISA plate reader (SpectraMax 384plus, Molecular Device).

[4] = target: T3, hFc-tagged human 4-1BB extracellular …; assay: ELISA, coated human 4-1BB-hFc; Ab 2 ug/ml
Experimental: as §2

[5] = target: T3, hFc-tagged human 4-1BB extracellular …; assay: ELISA, coated human 4-1BB-hFc; Ab 0.0006 ug/ml
Experimental: as §2

[6] = target: T3, hFc-tagged human 4-1BB extracellular …; assay: ELISA: human 4-1BB-hFc coated at 1.0 µg/mL, antibody titrated, HRP secondary antibody, OD450
Experimental: as §2

[7] = target: T1, human 4-1BB, full length, on …; assay: FACS, CHOK1-h4-1BB cells; Ab 2 ug/ml
Source text: as §1

[8] = target: T2, monkey 4-1BB on CHOK1 cells; assay: FACS, CHOK1-c4-1BB cells; Ab 0.4 ug/ml
Source text: as §1

[9] = target: T1, human 4-1BB, full length, on …; assay: FACS, CHOK1-h4-1BB cells; Ab 0.00013 ug/ml
Source text: as §1

[10] = target: T1, human 4-1BB, full length, on …; assay: FACS, CHOK1-h4-1BB cells; Ab 0.0032 ug/ml
Source text: as §1

[11] = target: T3, hFc-tagged human 4-1BB extracellular …; assay: ELISA, coated human 4-1BB-hFc; Ab 0.08 ug/ml
Experimental: as §2

[12] = target: T2, monkey 4-1BB on CHOK1 cells; assay: FACS, CHOK1-c4-1BB cells; Ab 0.016 ug/ml
Source text: as §1

[13] = target: T3, hFc-tagged human 4-1BB extracellular …; assay: ELISA, coated human 4-1BB-hFc; Ab 0.0032 ug/ml
Experimental: as §2

[14] = target: T1, human 4-1BB, full length, on …; assay: FACS, CHOK1-h4-1BB cells; Ab 0.4 ug/ml
Source text: as §1

T1 sequence (Q07011 24-255): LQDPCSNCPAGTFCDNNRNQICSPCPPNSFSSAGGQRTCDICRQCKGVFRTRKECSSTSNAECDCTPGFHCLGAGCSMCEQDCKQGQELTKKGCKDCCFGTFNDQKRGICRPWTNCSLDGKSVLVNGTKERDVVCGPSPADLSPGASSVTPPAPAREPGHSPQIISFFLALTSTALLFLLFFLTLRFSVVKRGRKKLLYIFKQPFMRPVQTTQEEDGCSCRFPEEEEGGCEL

average fluorescence intensity [1]	average fluorescence intensity [2]	OD450 nm [3]	OD450 nm [4]	OD450 nm [5]	EC50 (read off the curve) [6]	average fluorescence intensity [7]	average fluorescence intensity [8]	average fluorescence intensity [9]	average fluorescence intensity [10]	OD450 nm [11]	average fluorescence intensity [12]	OD450 nm [13]	average fluorescence intensity [14]	Binder
2280 MFI	3 MFI	2.79 OD450 nm	2.77 OD450 nm	0.11 OD450 nm	~0.02 µg/mL	1920 MFI	466 MFI	4 MFI	26.7 MFI	2.73 OD450 nm	47.2 MFI	0.34 OD450 nm	1520 MFI	289B6G6 (antibody, V domains shown) VH: QVQLQESGPGLVRPSETLSLTCAVSGYSISSGYYWGWIRQPPGKGLEWIGSIFHSGNTYYNPSLKSRVIVSGDTSKNQFSLKLSSVTAADTAVYYCTRESSGFNVFDIWGQGTMVTVSS VL: not shown
735 MFI	2.6 MFI	3.5 OD450 nm	3.49 OD450 nm	0.19 OD450 nm	~0.02 µg/mL	736 MFI	304 MFI	2.6 MFI	14 MFI	3.24 OD450 nm	25.9 MFI	0.48 OD450 nm	540 MFI	170D7F2 (antibody, V domains shown) VH: QVQLVQSGAEVKKPGASVKVSCKASGYTFTSYDINWVRQATGQGLEWMGWMNPNSGNTGYAQKFQGRVTMTRNTSISTAYMELSSLRSEDTAVYYCARETGPFDYWGQGTLVTVSS VL: DIQMTQSPSSLSASVGDRVTITCRASQRINNYLNWYQQKPGKAPKLLIYGASSLQSGVPSRFSGSGSGTDFTLTISSLQPEDFATYYCQQSYSTPFTFGPGTKVDIK

Further lines, the binder ahead of its results:

Binder	average fluorescence intensity [1]	average fluorescence intensity [2]	OD450 nm [3]	OD450 nm [4]	OD450 nm [5]	EC50 (read off the curve) [6]	average fluorescence intensity [7]	average fluorescence intensity [8]	average fluorescence intensity [9]	average fluorescence intensity [10]	OD450 nm [11]	average fluorescence intensity [12]	OD450 nm [13]	average fluorescence intensity [14]
118F3A2 (antibody, V domains shown) VH: QVQLQQWGAGLLKPSETLSLTCGVYGGSFSTNYWSWIRQSPGKGLEWIGEINHSGNTEYNPSLKSRLTISIDTSKNQFSLKLTSVTAADTAVYYCARMGYHSPSFDFWGQGVLVTVSS VL: KIVMTQSPATLSVSPGERATLPCRVSQGIGSNLAWYQQKPGQAPRLLIYGASTRATGVPARFSGSGSGSEFTLTISSLQSEDLALYYCQQYNNWPLTFGGGTKVEIK	527 MFI	2.9 MFI	2.73 OD450 nm	2.72 OD450 nm	0.44 OD450 nm	~0.03 µg/mL	540 MFI	408 MFI	4.4 MFI	34.4 MFI	2.26 OD450 nm	41.2 MFI	0.54 OD450 nm	508 MFI
113F6C6 (antibody, V domains shown, also called 4-1BB fully human antibody 113F6C6; 113F6F6) VH: QVQLVESGGGVVQPGRSLRLSCAASGLTFSSYGMHWVRQAPGKGLEWVAVIWYDGSNKYYADSVKGRFTISRDNSKNTLYLQMNSLRAEDTAVYYCAREEVLWFGELSYNYYYGMDVWGQGTTVTVSS VL: DIQMTQSPSSLSASVGDRVTITCRASQGISNYLAWYQQKPGKVPKLLIYAASTLQSGVPSRFSGSGSGTDFTLTISSLQPEDVATYYCQKYNSVPLTFGGGTKVEIK	405 MFI	2.9 MFI	–	–	–	~0.02 µg/mL	477 MFI	357 MFI	2.7 MFI	13.7 MFI	–	51.5 MFI	–	323 MFI
57B3D10 (antibody, V domains shown, also called 4-1BB fully human antibody 57B3D10) VH: QVQLQESGPGLVKPSETLSLTCTVSGGSISSYYWSWIRQPPGKGLEWIGYIYYSGSTNYNPSLKSRVTISVDTSKSQFSLKLTSVTAADTAVYYCAKDSDYYGSGSYSYWYFDLWGRGTLVTVSS VL: EIVMTQSPATLSVSPGERATLSCRASQSVSSNLAWYQQKPGQAPRLLIYGASTRAPGIPARFSGSGSGTEFTLTISSLQSEDFAVYYCQQYNNWPLTFGGGTKVEIK	538 MFI	3.3 MFI	–	–	–	~0.02 µg/mL	555 MFI	549 MFI	4.9 MFI	42.7 MFI	–	63.5 MFI	–	490 MFI
52F4G2 (antibody, V domains shown) VH: QVQLQESGPGLVKPSETLSLTCAVSGYSISSGYYWGWIRQPPGKGLEWIGSIFHSGSSYYNPSLKSRVTISVDTSKNQFSLKLRSVTAADTAVYYCARESSGWNCFDYWGQGTLVTVSS VL: DIQMTQSPSTLSASVGDRVTITCRASQTISTWLAWYQQKPGKAPKLLIYKASNLESGVPSRFSGSGSGTEFTLTISSLQPDDFATYYCQQYNSYSITFGQGTRLEIK	615 MFI	3.2 MFI	3.09 OD450 nm	3.1 OD450 nm	0.34 OD450 nm	~0.007 µg/mL	600 MFI	469 MFI	4.8 MFI	38.3 MFI	3.08 OD450 nm	41.2 MFI	0.89 OD450 nm	584 MFI
23G3B8 (antibody, V domains shown) VH: QVQLQESGPGLVKPSETLSLTCAVSAYSISSGYYWGWIRQPPGKGLEWIGSIFHSGSNYYNPSLKSRVTISVDPSKNQFSLKLSSVTVADTAVYYCARESSGYNCFDYWGQGTLVTVSS VL: not shown	–	3.4 MFI	2.77 OD450 nm	2.78 OD450 nm	0.1 OD450 nm	~0.02 µg/mL	619 MFI	392 MFI	4.6 MFI	38.5 MFI	2.53 OD450 nm	34.2 MFI	0.28 OD450 nm	541 MFI
